The target in assay [1] is biotinylated synthetic peptide containing the C-terminal 16 amino-acid residues of harmonin-a1 including the PBM. Put plainly: SPR. (In SPR one partner is held on a chip, and binding of the other changes the refractive index at the surface.)
Assay [2] has as its target NTD-PDZ1 supramodule of harmonin-a1. In words: NMR titration.
For assay [3], the target named is PDZ2 domain of harmonin-a1 (amino acids 197-308). Put plainly: NMR titration.

For orientation: Kd means the concentration at which binding is half-saturated. In assay [1], “NTD-PDZ1 supramodule of harmonin-a1 (domain or fragment)” showed a Kd of 61 µM. In other words, the double-digit micromolar range.

Regarding “synthetic peptide of the C-terminal 16 residues of harmonin-a1 (amino acids 533-548) including the PBM”, the Kd in assay [2] was determined as 51 µM; in assay [3] it was 375 µM.

Values taken from PMC5599985.
